Our source for the EC50, IC50 and Kd values is patent US20240415889A1 (published 2024).

In experiment [1] the target is T1, single chain CD94/NKG2A-Fc (CD94/NKG2A-IgG1 fusion polypeptide). The experiment is described as follows: ELISA; FIG. 27.
In experiment [2] the target is T1, single chain CD94/NKG2A-Fc …. In words: competitive ELISA (HLA-E tetramer).
Experiment [3] shares this target. In words: BLI. For orientation: In BLI a coated tip is dipped into the sample, and binding shifts an interference pattern.
Experiment [4] shares this target. The experiment is described as follows: competitive ELISA (HLA-E tetramer); FIG. 26. In general terms: ELISA stands for enzyme-linked immunosorbent assay.

T1 sequence (chain, as listed by the source): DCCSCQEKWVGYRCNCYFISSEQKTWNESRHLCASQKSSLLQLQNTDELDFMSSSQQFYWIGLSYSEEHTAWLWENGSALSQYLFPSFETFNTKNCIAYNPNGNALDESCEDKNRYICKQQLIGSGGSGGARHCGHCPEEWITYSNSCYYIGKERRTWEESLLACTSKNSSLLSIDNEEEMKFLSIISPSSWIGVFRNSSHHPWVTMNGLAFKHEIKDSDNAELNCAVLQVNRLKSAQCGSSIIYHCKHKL

B1: IgG Clone #2 (1B2-6, IgG1-LALA-PG) (antibody, V domains shown)
VH: EVQLVESGGGLVKPGGSLRLSCAASGFTFSGYYMSWIRQAPGKGLEWLAYISNSGRTIYYADSVKGRFTISRDNSNSSLYLQMNSLRAEDTAVYYCARGFYMDAWGKGTTVTVSS
VL: DIQMTQSPSSLSASVGDRVTITCRASQSISSYLNWYQQKPGKAPKLLIYAASSLQSGVPSRFSGSGSGTDFTLTISSLQPEDFGVYYCQYYGISPPFTFGPGTKVDIKR
Usually EC50 stands for the concentration at which the effect is half-maximal. Usually IC50 stands for the concentration that inhibits the measured activity by half. The low end stands for inhibition by little substance, the high end for a need for much substance. Turning to B1, the EC50 in experiment [1] came out at 0.64 nM. Further, in experiment [2], the IC50 was determined as 1.4 nM.

B2: IgG Clone #1 (1B2, IgG1-LALA-PG) (antibody, V domains shown)
VH: QVQLVESGGGLVKPGGSLRLSCAASGFTFSDYYMSWIRQAPGKGLEWVSYISSSGSTIYYADSVKGRFTISRDNAKNSLYLQMNSLRAEDTAVYYCARGFYMDAWGKGTTVTVSS
VL: DIQMTQSPSSLSASVGDRVTITCRASQSISSYLNWYQQKPGKAPKLLIYAASSLQSGVPSRFSGSGSGTDFTLTISSLQPEDFGVYYCQYYGISPPFTFGPGTKVDIKR
Usually Kd stands for the concentration at which binding is half-saturated. Lower therefore signals tighter binding. B2 registered a Kd in experiment [3] of 1.14 nM. The EC50 in experiment [1] was determined as 1.6 nM. Moreover, the values for the IC50 in experiment [2] and in experiment [4] were 9.6 nM and 20 nM, respectively.
